Consider 17 molecules from patent publication US20220033484A1 (FAPON BIOTECH, published 2022).

This experiment concerns the target T1, cTnI quality control product recombinant protein (human, UniProt P19429 2-210, limits assumed).
T1 construct: treated as the same molecule; also called cTnI antigen; cardiac troponin I
The experiment is described as follows: AMC sensor, antibody immobilised, cTnI in solution. As for the experimental part: Operating process: it is equilibrated in Buffer 1 (PBST) for 60 s, the antibody is immobilized in an antibody solution for 300 s, incubated in Buffer 2 (PBST) for 180 s, bound in antigen solution for 420 s, dissociated in the Buffer 2 for 1200 s, 10 mM of GLY solution with pH 1.69 and Buffer 3 are used for sensor regeneration, and data is output. KD represents an equilibrium dissociation constant, namely the affinity; Kon represents a binding rate; and Kd is represents a dissociation rate.

The term Kd denotes a measure of binding affinity in units of concentration. In general, koff refers to the rate constant with which the complex falls apart. By kon is commonly meant the second-order rate constant of association.

T1 sequence (P19429 2-210 limits assumed): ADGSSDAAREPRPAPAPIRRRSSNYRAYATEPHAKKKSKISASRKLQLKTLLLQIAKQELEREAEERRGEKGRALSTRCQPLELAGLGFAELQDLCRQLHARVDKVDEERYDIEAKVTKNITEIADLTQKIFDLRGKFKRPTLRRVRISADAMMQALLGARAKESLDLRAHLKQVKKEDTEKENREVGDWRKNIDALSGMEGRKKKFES

B1: Mutation 1-36 (antibody, V domains shown)
VH: EVQLQQSGPELVKPGASVKMSCKASGYTFTIYVVHWVKQKPGQGLEWIGYINPYIDGTKYNEKFKGKATLTVDKSSSTAFMELSSLTSEDSAVYYCARSGYGQYGLAWLAYWGQGTLVTVSA
VL: QAVVIQESALTTSPGETVTLTCRSSTGAVTTSQYANWVQEKPDHLFTGLIGGSNNRAPGVPARFSGSLIGDKAALTITGAQTEDEAIYFCALVYSNHWVFGGGTKLTVLG
notes: Built as m8; CDR-VL1 cell printed 'VQ', read as V/Q
Regarding B1, the dissociation constant Kd stood at 3.29 nM, the koff was 0.000118 s⁻¹ and the kon amounted to 36000 M⁻¹ s⁻¹.

B2: Mutation 1-42 (antibody, V domains shown)
VH: EVQLQQSGPELVKPGASVKMSCKASGYTFTLYVVHWVKQKPGQGLEWIGYINPYLDGTKYNEKFKGKATLTVDKSSSTAFMELSSLTSEDSAVYYCARSGYGQYGLAWLAYWGQGTLVTVSA
VL: QAVVIQESALTTSPGETVTLTCRSSTGAVTTSNYANWVQEKPDHLFTGLIGGSNNRAPGVPARFSGSLIGDKAALTITGAQTEDEAIYFCALVYSNHWVFGGGTKLTVLG
notes: Built as m8
Consider B2, for which the Kd is 0.821 nM, the koff was 6.8e-05 s⁻¹ and the kon was 82800 M⁻¹ s⁻¹.

B3: Mutation 1-47 (antibody, V domains shown)
VH: EVQLQQSGPELVKPGASVKMSCKASGYTFTLYVIHWVKQKPGQGLEWIGYINPYLDGTKYNEKFKGKATLTVDKSSSTAFMELSSLTSEDSAVYYCARSGYGGYGLAWLAYWGQGTLVTVSA
VL: QAVVIQESALTTSPGETVTLTCRSSTGAATTSQYANWVQEKPDHLFTGLIGGSQNRAPGVPARFSGSLIGDKAALTITGAQTEDEAIYFCALVYSNHWVFGGGTKLTVLG
notes: Built as m8
Regarding B3, the Kd was determined as 3.05 nM, the koff worked out at 0.000196 s⁻¹ and the kon is 64100 M⁻¹ s⁻¹.

B4: Mutation 1-53 (antibody, V domains shown)
VH: EVQLQQSGPELVKPGASVKMSCKASGYTFTIYVVHWVKQKPGQGLEWIGYIYPYIDGTKYNEKFKGKATLTVDKSSSTAFMELSSLTSEDSAVYYCARSGYGGYGLAWLAYWGQGTLVTVSA
VL: QAVVIQESALTTSPGETVTLTCRSSTGAVTTSNYANWVQEKPDHLFTGLIGGSQNRAPGVPARFSGSLIGDKAALTITGAQTEDEAIYFCALVYSNQWVFGGGTKLTVLG
notes: Built as m8
Consider B4, for which the Kd turned out to be 8.38 nM, the off-rate (koff) is 0.000543 s⁻¹ and the kon was 64800 M⁻¹ s⁻¹.

B5: Mutation 1-37 (antibody, V domains shown)
VH: EVQLQQSGPELVKPGASVKMSCKASGYTFTIYVLHWVKQKPGQGLEWIGYINPYLDGTKYNEKFKGKATLTVDKSSSTAFMELSSLTSEDSAVYYCARSGYGNYGLAWLAYWGQGTLVTVSA
VL: QAVVIQESALTTSPGETVTLTCRSSTGAVTTSQYANWVQEKPDHLFTGLIGGSQNRAPGVPARFSGSLIGDKAALTITGAQTEDEAIYFCALVYSNQWVFGGGTKLTVLG
notes: Built as m8
In the case of B5, the dissociation constant (Kd) was 5.21 nM, the dissociation rate constant (koff) stood at 0.000208 s⁻¹ and the kon is 39900 M⁻¹ s⁻¹.

B6: Mutation 1-39 (antibody, V domains shown)
VH: EVQLQQSGPELVKPGASVKMSCKASGYTFTLYVVHWVKQKPGQGLEWIGYIQPYLDGTKYNEKFKGKATLTVDKSSSTAFMELSSLTSEDSAVYYCARSGYGQYGLAWLAYWGQGTLVTVSA
VL: QAVVIQESALTTSPGETVTLTCRSSTGAVTTSNYANWVQEKPDHLFTGLIGGSQNRAPGVPARFSGSLIGDKAALTITGAQTEDEAIYFCALVYSNQWVFGGGTKLTVLG
notes: Built as m8
With B6, the Kd amounted to 1.08 nM, the koff turned out to be 4.72e-05 s⁻¹ and the kon was 43600 M⁻¹ s⁻¹.

B7: Mutation 1-52 (antibody, V domains shown)
VH: EVQLQQSGPELVKPGASVKMSCKASGYTFTIYVVHWVKQKPGQGLEWIGYINPYLDGTKYNEKFKGKATLTVDKSSSTAFMELSSLTSEDSAVYYCARSGYGNYGLAWLAYWGQGTLVTVSA
VL: QAVVIQESALTTSPGETVTLTCRSSTGAATTSQYANWVQEKPDHLFTGLIGGSNNRAPGVPARFSGSLIGDKAALTITGAQTEDEAIYFCALVYSNNWVFGGGTKLTVLG
notes: Built as m8
Regarding B7, the Kd amounted to 6.01 nM, the koff was 0.000492 s⁻¹ and the kon was found to be 81800 M⁻¹ s⁻¹.

B8: Mutation 1-40 (antibody, V domains shown)
VH: EVQLQQSGPELVKPGASVKMSCKASGYTFTIYVLHWVKQKPGQGLEWIGYIQPYLDGTKYNEKFKGKATLTVDKSSSTAFMELSSLTSEDSAVYYCARSGYGNYGLAWLAYWGQGTLVTVSA
VL: QAVVIQESALTTSPGETVTLTCRSSTGAVTTSNYANWVQEKPDHLFTGLIGGSNNRAPGVPARFSGSLIGDKAALTITGAQTEDEAIYFCALVYSNNWVFGGGTKLTVLG
notes: Built as m8
For B8, the equilibrium dissociation constant (Kd) turned out to be 1.85 nM, the koff is 4.05e-05 s⁻¹ and the kon is 21900 M⁻¹ s⁻¹.

B9: Mutation 1-45 (antibody, V domains shown)
VH: EVQLQQSGPELVKPGASVKMSCKASGYTFTLYVVHWVKQKPGQGLEWIGYIQPYLDGTKYNEKFKGKATLTVDKSSSTAFMELSSLTSEDSAVYYCARSGYGQYGLAWLAYWGQGTLVTVSA
VL: QAVVIQESALTTSPGETVTLTCRSSTGAVTTSQYANWVQEKPDHLFTGLIGGSQNRAPGVPARFSGSLIGDKAALTITGAQTEDEAIYFCALVYSNQWVFGGGTKLTVLG
notes: Built as m8
Take B9: the Kd stood at 7.41 nM, the koff was determined as 0.000286 s⁻¹ and the kon was 38600 M⁻¹ s⁻¹.

B10: Mutation 1-51 (antibody, V domains shown)
VH: EVQLQQSGPELVKPGASVKMSCKASGYTFTIYVVHWVKQKPGQGLEWIGYIQPYIDGTKYNEKFKGKATLTVDKSSSTAFMELSSLTSEDSAVYYCARSGYGQYGLAWLAYWGQGTLVTVSA
VL: QAVVIQESALTTSPGETVTLTCRSSTGAATTSQYANWVQEKPDHLFTGLIGGSNNRAPGVPARFSGSLIGDKAALTITGAQTEDEAIYFCALVYSNHWVFGGGTKLTVLG
notes: Built as m8
Turning to B10, the Kd was determined as 7.3 nM, the koff stood at 0.000223 s⁻¹ and the kon is 30500 M⁻¹ s⁻¹.

B11: Mutation 1-46 (antibody, V domains shown)
VH: EVQLQQSGPELVKPGASVKMSCKASGYTFTIYVLHWVKQKPGQGLEWIGYINPYIDGTKYNEKFKGKATLTVDKSSSTAFMELSSLTSEDSAVYYCARSGYGNYGLAWLAYWGQGTLVTVSA
VL: QAVVIQESALTTSPGETVTLTCRSSTGAVTTSNYANWVQEKPDHLFTGLIGGSNNRAPGVPARFSGSLIGDKAALTITGAQTEDEAIYFCALVYSNNWVFGGGTKLTVLG
notes: Built as m8
Take B11: the dissociation constant (Kd) turned out to be 5.41 nM, the koff turned out to be 0.000217 s⁻¹ and the kon came to 40100 M⁻¹ s⁻¹.

B12: Mutation 1-50 (antibody, V domains shown)
VH: EVQLQQSGPELVKPGASVKMSCKASGYTFTIYVIHWVKQKPGQGLEWIGYIYPYIDGTKYNEKFKGKATLTVDKSSSTAFMELSSLTSEDSAVYYCARSGYGGYGLAWLAYWGQGTLVTVSA
VL: QAVVIQESALTTSPGETVTLTCRSSTGAATTSQYANWVQEKPDHLFTGLIGGSQNRAPGVPARFSGSLIGDKAALTITGAQTEDEAIYFCALVYSNHWVFGGGTKLTVLG
Turning to B12, the Kd amounted to 4.61 nM, the koff came out at 0.000233 s⁻¹ and the kon turned out to be 50500 M⁻¹ s⁻¹.

B13: Mutation 1-54 (antibody, V domains shown)
VH: EVQLQQSGPELVKPGASVKMSCKASGYTFTIYVVHWVKQKPGQGLEWIGYINPYLDGTKYNEKFKGKATLTVDKSSSTAFMELSSLTSEDSAVYYCARSGYGQYGLAWLAYWGQGTLVTVSA
VL: QAVVIQESALTTSPGETVTLTCRSSTGAATTSNYANWVQEKPDHLFTGLIGGSNNRAPGVPARFSGSLIGDKAALTITGAQTEDEAIYFCALVYSNQWVFGGGTKLTVLG
notes: Built as m8
Turning to B13, the Kd turned out to be 7.78 nM, the koff was 0.000321 s⁻¹ and the kon was 41300 M⁻¹ s⁻¹.

B14: Mutation 1-44 (antibody, V domains shown)
VH: EVQLQQSGPELVKPGASVKMSCKASGYTFTIYVIHWVKQKPGQGLEWIGYIQPYIDGTKYNEKFKGKATLTVDKSSSTAFMELSSLTSEDSAVYYCARSGYGGYGLAWLAYWGQGTLVTVSA
VL: QAVVIQESALTTSPGETVTLTCRSSTGAATTSNYANWVQEKPDHLFTGLIGGSNNRAPGVPARFSGSLIGDKAALTITGAQTEDEAIYFCALVYSNNWVFGGGTKLTVLG
notes: Built as m8
On to B14, for which the Kd is 6.56 nM, the koff worked out at 0.000205 s⁻¹ and the kon was determined as 31300 M⁻¹ s⁻¹.

B15: Mutation 1-38 (antibody, V domains shown)
VH: EVQLQQSGPELVKPGASVKMSCKASGYTFTIYVIHWVKQKPGQGLEWIGYIYPYIDGTKYNEKFKGKATLTVDKSSSTAFMELSSLTSEDSAVYYCARSGYGGYGLAWLAYWGQGTLVTVSA
VL: QAVVIQESALTTSPGETVTLTCRSSTGAVTTSQYANWVQEKPDHLFTGLIGGSNNRAPGVPARFSGSLIGDKAALTITGAQTEDEAIYFCALVYSNNWVFGGGTKLTVLG
notes: Built as m8
Regarding B15, the Kd came to 0.254 nM, the koff came out at 1.72e-05 s⁻¹ and the kon stood at 67700 M⁻¹ s⁻¹.

B16: Mutation 1-48 (antibody, V domains shown)
VH: EVQLQQSGPELVKPGASVKMSCKASGYTFTIYVVHWVKQKPGQGLEWIGYIYPYIDGTKYNEKFKGKATLTVDKSSSTAFMELSSLTSEDSAVYYCARSGYGQYGLAWLAYWGQGTLVTVSA
VL: QAVVIQESALTTSPGETVTLTCRSSTGAATTSNYANWVQEKPDHLFTGLIGGSNNRAPGVPARFSGSLIGDKAALTITGAQTEDEAIYFCALVYSNQWVFGGGTKLTVLG
notes: Built as m8
With B16, the Kd came out at 0.553 nM, the koff was found to be 4.32e-05 s⁻¹ and the kon was found to be 78200 M⁻¹ s⁻¹.

B17: Mutation 1-43 (antibody, V domains shown)
VH: EVQLQQSGPELVKPGASVKMSCKASGYTFTIYVLHWVKQKPGQGLEWIGYIYPYIDGTKYNEKFKGKATLTVDKSSSTAFMELSSLTSEDSAVYYCARSGYGNYGLAWLAYWGQGTLVTVSA
VL: QAVVIQESALTTSPGETVTLTCRSSTGAATTSQYANWVQEKPDHLFTGLIGGSQNRAPGVPARFSGSLIGDKAALTITGAQTEDEAIYFCALVYSNQWVFGGGTKLTVLG
notes: Built as m8
B17: the Kd is 0.464 nM, the koff was 3.38e-05 s⁻¹ and the kon is 72900 M⁻¹ s⁻¹.
